Assay results: patent US20230108300A1 (University of Pennsylvania, published 2023)

Molecular target: MART1 clone DMF4 TCR (includes the TCRvβ12 segment) expressed on SupT1 cells
Assay: cell-based or functional assay

B1: Vβ12-targeting CAR (construct not specified for the experiment) (other)
VH: EVMLVESGGGLVKPGGSLKLSCAASGFTFRSYAMSWVRQTPEKRLEWVATISSGGSYTNYPDSVKGRFTISRDNAKNTLNLQMNSLRSEDTAMYYCARGYHGYLDVWGAGTTVTVSS
VL: DILLTQSPAFLSVSPGERVSFSCRASQSIGTSIHWYQQRTNGSPRLLIKYASESFSGIPSRFSGSGSGTDFTLSISSVESEDIADYYCQQSYSWPYTFGGGTKLEIK
**Q.** For B1, which “lysis of the target cell lines at three E:T ratios” value is on record?
**A.** ~100%
